Data from patent publication US20130177960.

Key:
Experiment in all cases: cell_activity
[1] = tested on: SBS34077 ZFN (synthetic); conditions: pair with 33115, D17 cells
[2] = tested on: SBS33115 ZFN (synthetic); conditions: pair with 34077, D17 cells
[3] = tested on: SBS35393 ZFN (synthetic); conditions: pair with 35361
[4] = tested on: SBS30724 ZFN (synthetic); conditions: pair with 30725, AAV in mouse liver, Cel-I
[5] = tested on: SBS30872 ZFN (synthetic); conditions: pair with 30873, AAV8 in mouse liver, Cel-I; up to 17% over both pairs
[6] = tested on: SBS36806 ZFN (synthetic); conditions: pair with 35396, RF/6A
[7] = tested on: SBS36819 ZFN (synthetic); conditions: pair with 35396, RF/6A
[8] = tested on: SBS36813 ZFN (synthetic); conditions: pair with 35396, RF/6A
[9] = tested on: SBS36820 ZFN (synthetic); conditions: pair with 35396, RF/6A
[10] = tested on: SBS36808 ZFN (synthetic); conditions: pair with 35396, RF/6A
[11] = tested on: SBS30873 ZFN (synthetic); conditions: pair with 30872, AAV8 in mouse liver, Cel-I; up to 17% over both pairs
[12] = tested on: SBS30725 ZFN (synthetic); conditions: pair with 30724, AAV in mouse liver, Cel-I
[13] = tested on: SBS35370 ZFN (synthetic); conditions: pair with 35396

AAGTCATGTGGAGAGAAACACAAAGAGT (double strand) [34077 site]
activity [1]: 30 % indels

AGTATTCGTTTGCTCCAAAATATTTGCC (double strand) [33115 site]
activity [2]: 30 % indels

CCTATCCATTGCACTATGCTTTATTTAA (double strand) [human locus 2 left site (conserved in rhesus)]
activity (% mutated targets) [3]: 18

CTGAAGGTGGCAATGGTTCCTCTCTGCT (double strand) [30724 site]
activity [4]: < 21 % indels

CTTGGCTGTGTAGGAGGGGAGTAGCAGT (double strand) [30872 site]
activity [5]: < 17 % indels

TTAGGGACAGTTATGAATTCAATCTTCA (double strand) [rhesus partner site]
activity [6]: 20.5 % indels
activity [7]: 30 % indels
activity [8]: 21 % indels
activity [9]: 23 % indels
activity [10]: 26 % indels

TTCCTAAGTTGGCAGTGGCATGCTTAAT (double strand) [30873 site]
activity [11]: < 17 % indels

TTTCCTGTAACGATCGGGAACTGGCATC (double strand) [30725 site]
activity [12]: < 21 % indels

TTTGGGATAGTTATGAATTCAATCTTCA (double strand) [human locus 2 partner site]
activity (% mutated targets) [13]: 22
